Test results taken from PMC10397247.
Each block holds one binder with its values, some of them ahead of it.

Key:
Assay in all cases: two-hybrid library CCNG1;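 also: natural log of median RNA to DNA barcode read ratio; higher means stronger binding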
4H342-bA = target: T1, 4H342-bA
T1 chain: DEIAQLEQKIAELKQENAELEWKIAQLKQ

4H48-bA = target: T2, 4H48-bA
T2 chain: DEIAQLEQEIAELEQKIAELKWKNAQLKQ

4H491-bA = target: T3, 4H491-bA
T3 chain: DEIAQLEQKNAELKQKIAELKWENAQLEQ

4H2937-bA = target: T4, 4H2937-bA
T4 chain: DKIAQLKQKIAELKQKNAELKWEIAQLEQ

4H2944-bA = target: T5, 4H2944-bA
T5 chain: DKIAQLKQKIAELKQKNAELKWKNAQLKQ

4H2937-bH = target: T6, 4H2937-bH
T6 chain: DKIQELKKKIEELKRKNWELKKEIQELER

4H342-bH = target: T7, 4H342-bH
T7 chain: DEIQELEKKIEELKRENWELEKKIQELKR

4H491-bH = target: T8, 4H491-bH
T8 chain: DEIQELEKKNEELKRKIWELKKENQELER

4H48-bH = target: T9, 4H48-bH
T9 chain: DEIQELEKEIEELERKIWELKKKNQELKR

4H2944-bH = target: T10, 4H2944-bH
T10 chain: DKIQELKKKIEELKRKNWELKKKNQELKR

4H3112-bH = target: T11, 4H3112-bH
T11 chain: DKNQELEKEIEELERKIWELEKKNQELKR

4H883-bN = target: T12, 4H883-bN
T12 chain: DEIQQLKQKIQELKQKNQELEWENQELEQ

4H953-bH = target: T13, 4H953-bH
T13 chain: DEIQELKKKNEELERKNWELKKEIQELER

4H170-bH = target: T14, 4H170-bH
T14 chain: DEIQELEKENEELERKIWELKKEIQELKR

4H3010-bH = target: T15, 4H3010-bH
T15 chain: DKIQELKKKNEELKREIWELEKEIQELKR

4H918-bH = target: T16, 4H918-bH
T16 chain: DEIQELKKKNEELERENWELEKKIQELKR

4H797-bH = target: T17, 4H797-bH
T17 chain: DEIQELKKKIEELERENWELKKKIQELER

4H2627-bH = target: T18, 4H2627-bH
T18 chain: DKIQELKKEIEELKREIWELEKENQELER

4H855-bH = target: T19, 4H855-bH
T19 chain: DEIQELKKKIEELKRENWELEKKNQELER

4H1831-bH = target: T20, 4H1831-bH
T20 chain: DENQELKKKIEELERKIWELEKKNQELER

4H2702-bH = target: T21, 4H2702-bH
T21 chain: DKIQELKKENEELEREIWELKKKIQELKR

4H3427-bH = target: T22, 4H3427-bH
T22 chain: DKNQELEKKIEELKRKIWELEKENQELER

4H4073-bH = target: T23, 4H4073-bH
T23 chain: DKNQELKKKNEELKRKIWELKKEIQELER

4H754-bH = target: T24, 4H754-bH
T24 chain: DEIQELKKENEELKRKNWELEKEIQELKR

4H346-bH = target: T25, 4H346-bH
T25 chain: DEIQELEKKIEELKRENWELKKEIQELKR

4H457-bH = target: T26, 4H457-bH
T26 chain: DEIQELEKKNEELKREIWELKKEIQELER

4H3926-bH = target: T27, 4H3926-bH
T27 chain: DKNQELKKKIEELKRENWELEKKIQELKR

4H3961-bA = target: T28, 4H3961-bA
T28 chain: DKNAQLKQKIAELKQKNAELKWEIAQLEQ

4H968-bH = target: T29, 4H968-bH
T29 chain: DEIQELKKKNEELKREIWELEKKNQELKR

4H780-bH = target: T30, 4H780-bH
T30 chain: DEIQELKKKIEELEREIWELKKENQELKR

4H118-bH = target: T31, 4H118-bH
T31 chain: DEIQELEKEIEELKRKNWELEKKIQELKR

4H575-bH = target: T32, 4H575-bH
T32 chain: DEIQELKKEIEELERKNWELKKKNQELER

4H683-bH = target: T33, 4H683-bH
T33 chain: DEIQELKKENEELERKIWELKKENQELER

4H2673-bH = target: T34, 4H2673-bH
T34 chain: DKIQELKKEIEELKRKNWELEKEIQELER

4H2586-bH = target: T35, 4H2586-bH
T35 chain: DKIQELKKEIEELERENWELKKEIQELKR

4H2944-bN = target: T36, 4H2944-bN
T36 chain: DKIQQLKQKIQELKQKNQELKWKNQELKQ

4H48-bN = target: T37, 4H48-bN
T37 chain: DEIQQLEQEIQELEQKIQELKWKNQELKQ

4H342-bN = target: T38, 4H342-bN
T38 chain: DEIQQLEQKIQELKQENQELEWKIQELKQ

4H491-bN = target: T39, 4H491-bN
T39 chain: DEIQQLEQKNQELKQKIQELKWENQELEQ

4H2937-bN = target: T40, 4H2937-bN
T40 chain: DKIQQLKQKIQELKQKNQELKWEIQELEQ

4H2717-bA = target: T41, 4H2717-bA
T41 chain: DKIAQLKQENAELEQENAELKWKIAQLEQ

O14-bN = target: T42, O14-bN
T42 chain: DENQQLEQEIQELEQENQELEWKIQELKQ

4H2839-bA = target: T43, 4H2839-bA
T43 chain: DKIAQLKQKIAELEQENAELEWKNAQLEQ

4H2143-bA = target: T44, 4H2143-bA
T44 chain: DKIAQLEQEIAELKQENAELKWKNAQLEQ

4H492-bA = target: T45, 4H492-bA
T45 chain: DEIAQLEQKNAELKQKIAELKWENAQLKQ

4H741-bA = target: T46, 4H741-bA
T46 chain: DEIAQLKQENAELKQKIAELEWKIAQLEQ

4H3057-bA = target: T47, 4H3057-bA
T47 chain: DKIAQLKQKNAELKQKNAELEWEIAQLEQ

4H2588-bA = target: T48, 4H2588-bA
T48 chain: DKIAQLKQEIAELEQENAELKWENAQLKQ

4H348-bA = target: T49, 4H348-bA
T49 chain: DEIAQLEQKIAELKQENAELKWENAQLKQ

4H2915-bA = target: T50, 4H2915-bA
T50 chain: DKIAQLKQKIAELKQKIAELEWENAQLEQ

4H2503-bA = target: T51, 4H2503-bA
T51 chain: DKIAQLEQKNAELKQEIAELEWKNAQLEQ

4H2473-bA = target: T52, 4H2473-bA
T52 chain: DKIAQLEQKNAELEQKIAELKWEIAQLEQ

4H2134-bA = target: T53, 4H2134-bA
T53 chain: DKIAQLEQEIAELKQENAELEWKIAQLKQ

4H3277-bA = target: T54, 4H3277-bA
T54 chain: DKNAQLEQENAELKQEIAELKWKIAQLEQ

4H477-bA = target: T55, 4H477-bA
T55 chain: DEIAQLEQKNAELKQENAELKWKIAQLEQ

4H40-bA = target: T56, 4H40-bA
T56 chain: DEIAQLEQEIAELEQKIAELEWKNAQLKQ

4H2692-bA = target: T57, 4H2692-bA
T57 chain: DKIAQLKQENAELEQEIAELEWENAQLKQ

4H2223-bA = target: T58, 4H2223-bA
T58 chain: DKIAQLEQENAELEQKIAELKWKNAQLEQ

4H319-bA = target: T59, 4H319-bA
T59 chain: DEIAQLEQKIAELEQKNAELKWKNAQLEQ

4H2438-bA = target: T60, 4H2438-bA
T60 chain: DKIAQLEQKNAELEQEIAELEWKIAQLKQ

interaction score (4H342-bA): 1.61 | interaction score (4H48-bA): 0.573 | interaction score (4H491-bA): -0.0219 | interaction score (4H2937-bA): -0.419 | interaction score (4H2944-bA): -0.548
Binder: DKIAQLKQKIAELKQKNAELKWEIAQLEQ [4H2937-bA]

interaction score (4H2937-bH): 0.307 | interaction score (4H342-bH): 1.21 | interaction score (4H491-bH): 0.828 | interaction score (4H48-bH): 0.185 | interaction score (4H2944-bH): -0.833
Binder: DKIQELKKKIEELKRKNWELKKEIQELER [4H2937-bH]

interaction score (4H3112-bH): 0.102 | interaction score (4H883-bN): 1.72 | interaction score (4H953-bH): 0.224 | interaction score (4H170-bH): 1.57 | interaction score (4H3010-bH): 1.94 | interaction score (4H918-bH): 0.604 | interaction score (4H797-bH): -0.304 | interaction score (4H2627-bH): 1.09 | interaction score (4H855-bH): 0.119 | interaction score (4H1831-bH): -0.127 | interaction score (4H2702-bH): 0.513 | interaction score (4H3427-bH): 1.04 | interaction score (4H4073-bH): 0.239 | interaction score (4H754-bH): 0.181 | interaction score (4H346-bH): 0.654 | interaction score (4H457-bH): 0.505 | interaction score (4H3926-bH): 1.57 | interaction score (4H3961-bA): 1.46 | interaction score (4H968-bH): 1.49 | interaction score (4H780-bH): 0.443 | interaction score (4H118-bH): 1.75 | interaction score (4H575-bH): -0.101 | interaction score (4H683-bH): -0.584 | interaction score (4H2673-bH): 1.9 | interaction score (4H2586-bH): 0.817
Binder: DEIQELEKEIEELKRKNWELEKKIQELKR [4H118-bH]

interaction score (4H2944-bN): -1.12 | interaction score (4H48-bN): -0.313 | interaction score (4H342-bN): 1.46 | interaction score (4H491-bN): -1.11 | interaction score (4H2937-bN): -0.616
Binder: DKIQQLKQKIQELKQKNQELKWEIQELEQ [4H2937-bN]

interaction score (4H2717-bA): -0.277 | interaction score (O14-bN): -1.45 | interaction score (4H2839-bA): 0.969 | interaction score (4H2143-bA): 1.32 | interaction score (4H492-bA): 0.114 | interaction score (4H741-bA): -1.46 | interaction score (4H3057-bA): 2.33 | interaction score (4H2588-bA): 0.531 | interaction score (4H348-bA): -1.14 | interaction score (4H2915-bA): 1.66 | interaction score (4H2503-bA): 0.834 | interaction score (4H2473-bA): 0.432 | interaction score (4H2134-bA): 1.43 | interaction score (4H3277-bA): 0.0479 | interaction score (4H477-bA): 0.935 | interaction score (4H40-bA): 0.811 | interaction score (4H2692-bA): -0.139 | interaction score (4H2223-bA): -0.522 | interaction score (4H319-bA): -0.399 | interaction score (4H2438-bA): 0.819
Binder: DKIAQLEQEIAELKQENAELEWKIAQLKQ [4H2134-bA]
